Changes are numbered by the printed parent chain.
B1: FabHpu24 (Fab)
heavy: QEQLKESGGRLVAPGTPLTLTCTVSGFDISDYAMIWVRQAPGKGLEWIGIIYGGSNKLAYAKWAKGRFTISRTSTTVDLKITSPTTEDTATYFCARGYGSMDGYDRLNLWGQGTLVTVSSGQPKGPSVFPLAPCCGDTPSSTVTLGCLVKGYLPEPVTVTWNSGTLTNGVRTFPSVRQSSGLYSLSSVVSVTSSSQPVTCNVAHPATNTKVDKTVAPSTCSKPT
light: AAVLTQTPSPVSAAVGGTVTISCQSSETVYRGDWLSWFQKKPGQPPKLLIYDASYLASGVSSRFSGSGSGTHFTLTISGVQCDDAATYYCLGGYYDDADDTFGGGTEVVVKGDPVAPTVLIFPPAADQVATGTVTIVCVANKYFPDVTVTWEVDGTTQTTGIENSKTPQNSADCTYNLSSTLTLTSTQYNSHKEYTCKVTQGTTSVVQSFNRGDC
B2: FabHpu98.61 (Fab)
heavy: QSVEESGGRLVTPGTPLTLTCTVSACSLYHCTMNWVRQAPGKGLEWIGDIYTDGNTYYANWAKGRFTISKTSTTVDLKITSPTTEDTATYFCARDSWDASSYYGLDLWGQGTLVTVSSGQPKGPSVFPLAPCCGDTPSSTVTLGCLVKGYLPEPVTVTWNSGTLTNGVRTFPSVRQSSGLYSLSSVVSVTSSSQPVTCNVAHPATNTKVDKTVAPSTCSKPT
light: AIKMTQTPSSVSAAVGGTVTINCQASEDIKRYLAWYQQKPGQPPKLLIYAASKLASGVSSRFKGSGSGTEYTLTISGVQCDDAATYYCQQGYTSSNVNNAFGGGTEVVVKGDPVAPTVLIFPPAADQVATGTVTIVCVANKYFPDVTVTWEVDGTTQTTGIENSKTPQNSADCTYNLSSTLTLTSTQYNSHKEYTCKVTQGTTSVVQSFNRGDC
B3: FabHpu24.B (Fab)
heavy: B1 heavy with G54V, S55I, K57D
light: B1 light with Q24R, S26R, E27Q, T28R, R31L, Y55F, L56R, A57G, S58D

Legend:
P1-Hpu [1] = experiment: SPR, Biacore T200, peptide captured, Fab flowed
P2-Hpu [2] = experiment: SPR, Biacore T200, peptide captured, Fab flowed
P4-Hpu [3] = experiment: SPR, Biacore T200, peptide captured, Fab flowed
P5-Hpu [4] = experiment: SPR, Biacore T200, peptide captured, Fab flowed
P1-Hpu [5] = experiment: SPR
P1-deoxy [6] = experiment: SPR
P1-Hpu [7] = experiment: SPR, ratio of KD values
P1-deoxy [8] = experiment: SPR, ratio of KD values
P2-Hpu [9] = experiment: SPR, ratio of KD values
P2-deoxy [10] = experiment: SPR, ratio of KD values
P4-Hpu [11] = experiment: SPR, ratio of KD values
P5-Hpu [12] = experiment: SPR, ratio of KD values
P1-deoxy [13] = experiment: SPR, Biacore T200, peptide captured, Fab flowed
P2-deoxy [14] = experiment: SPR, Biacore T200, peptide captured, Fab flowed
P3-Hpu [15] = experiment: SPR, ratio of KD values
P3-Hpu [16] = experiment: SPR, Biacore T200, peptide captured, Fab flowed

Binder | Kd (P1-Hpu [1]) | Kd (P2-Hpu [2]) | Kd (P4-Hpu [3]) | Kd (P5-Hpu [4]) | Kd (P1-Hpu [5]) | Kd (P1-deoxy [6]) | Fold improvement in KD over parent FabHpu98 (P1-Hpu [7]) | Fold improvement in KD over parent FabHpu98 (P1-deoxy [8]) | Fold improvement in KD over parent FabHpu98 (P2-Hpu [9]) | Fold improvement in KD over parent FabHpu98 (P2-deoxy [10]) | Fold improvement in KD over parent FabHpu98 (P4-Hpu [11]) | Fold improvement in KD over parent FabHpu98 (P5-Hpu [12]) | Kd (P1-deoxy [13]) | Kd (P2-deoxy [14]) | Fold improvement in KD over parent FabHpu24 (P1-Hpu [7]) | Fold improvement in KD over parent FabHpu24 (P2-Hpu [9]) | Fold improvement in KD over parent FabHpu24 (P3-Hpu [15]) | Fold improvement in KD over parent FabHpu24 (P4-Hpu [11]) | Fold improvement in KD over parent FabHpu24 (P5-Hpu [12]) | Kd (P3-Hpu [16])
B1 | 192 nM | 157 nM | 541 nM | 96 nM | – | – | – | – | – | – | – | – | – | – | – | – | – | – | – | –
B2 | 15 nM | 78 nM | 91 nM | 70 nM | 18 nM | 20 nM | 7.9 fold | 6.9 fold | 2.6 fold | 1.8 fold | 2.5 fold | 2.5 fold | 17 nM | 86 nM | – | – | – | – | – | –
B3 | 6 nM | 13 nM | 32 nM | 7 nM | – | – | – | – | – | – | – | – | – | – | 32 fold | 12 fold | > 5 fold | 17 fold | 13 fold | 186 nM

— US20210072250A1
